In patent US20170253873A1 (MAYO FOUNDATION FOR MEDICAL EDUCATION AND RESEARCH, published 2017):

B1: GST fusion of the amino half of SNX9 (SH3 and low complexity (LC) domains) (other, UniProt Q9Y5X1 1-203, looked up)
chain: MATKARVMYDFAAEPGNNELTVNEGEIITITNPDVGGGWLEGRNIKGERGLVPTDYVEILPSDGKDQFSCGNSVADQAFLDSLSASTAQASSSAASNNHQVGSGNDPWSAWSASKSGNWESSEGWGAQPEGAGAQRNTNTPNNWDTAFGHPQAYQGPATGDDDDWDEDWDGPKSSSYFKDSESADAGGAQRGNSRASSSSMKI
notes: domain: SH3 and low complexity (LC) domains; also called amino terminal peptide; not shown: glutathione S-transferase (GST) tag
B2: GST fusion of the carboxyl half of SNX9 (Phox and BAR domains) (other, UniProt Q9Y5X1 204-595, looked up)
chain: PLNKFPGFAKPGTEQYLLAKQLAKPKEKIPIIVGDYGPMWVYPTSTFDCVVADPRKGSKMYGLKSYIEYQLTPTNTNRSVNHRYKHFDWLYERLLVKFGSAIPIPSLPDKQVTGRFEEEFIKMRMERLQAWMTRMCRHPVISESEVFQQFLNFRDEKEWKTGKRKAERDELAGVMIFSTMEPEAPDLDLVEIEQKCEAVGKFTKAMDDGVKELLTVGQEHWKRCTGPLPKEYQKIGKALQSLATVFSSSGYQGETDLNDAITEAGKTYEEIASLVAEQPKKDLHFLMECNHEYKGFLGCFPDIIGTHKGAIEKVKESDKLVATSKITLQDKQNMVKRVSIMSYALQAEMNHFHSNRIYDYNSVIRLYLEQQVQFYETIAEKLRQALSRFPVM
notes: domain: Phox and BAR domains; not shown: glutathione S-transferase (GST) tag
B3: GST fusion of the first 74 amino acids of SNX9 encoding the SH3 domain (other, UniProt Q9Y5X1 1-74, looked up)
chain: MATKARVMYDFAAEPGNNELTVNEGEIITITNPDVGGGWLEGRNIKGERGLVPTDYVEILPSDGKDQFSCGNSV
notes: range 1-74; also called SH3 domain of sorting nexin 9; SNX9 SH3 domain; not shown: glutathione S-transferase (GST) tag
B4: GST fusion of the LC (low complexity) domain of SNX9 (other, UniProt Q9Y5X1 63-203, looked up)
chain: DGKDQFSCGNSVADQAFLDSLSASTAQASSSAASNNHQVGSGNDPWSAWSASKSGNWESSEGWGAQPEGAGAQRNTNTPNNWDTAFGHPQAYQGPATGDDDDWDEDWDGPKSSSYFKDSESADAGGAQRGNSRASSSSMKI
notes: domain: LC domain; It overlaps the 1-74 fragment; also called LC domain; not shown: glutathione S-transferase (GST) tag
B5: TAT-SH3-2M (TAT-SH3-2 with G to V mutations at amino acids 36-38) (designed binder)
chain: TVNEGEIITITNPDVVVVWLEGRNIKGERGL
notes: range 21-51; Mutant of TAT-SH3-2; also called Control peptide; not shown: His tag, cell penetrating TAT polypeptide from HIV and HA tag
B6: phosphorylated Smad2 (pSmad2) (other, UniProt Q62432 2-467, looked up)
chain: SSILPFTPPVVKRLLGWKKSAGGSGGAGGGEQNGQEEKWCEKAVKSLVKKLKKTGRLDELEKAITTQNCNTKCVTIPSTCSEIWGLSTANTVDQWDTTGLYSFSEQTRSLDGRLQVSHRKGLPHVIYCRLWRWPDLHSHHELKAIENCEYAFNLKKDEVCVNPYHYQRVETPVLPPVLVPRHTEILTELPPLDDYTHSIPENTNFPAGIEPQSNYIPETPPPGYISEDGETSDQQLNQSMDTGSPAELSPTTLSPVNHSLDLQPVTYSEPAFWCSIAYYELNQRVGETFHASQPSLTVDGFTDPSNSERFCLGLLSNVNRNATVEMTRRHIGRGVRLYYIGGEVFAECLSDSAIFVQSPNCNQRYGWHPATVCKIPPGCNLKIFNNQEFAALLAQSVNQGFEAVYQLTRMCTIRMSFVKGWGAEYRRQTVTSTPCWIELHLNGPLQWLDKVLTQMGSPSVRCSSMS
modifications: phosphorylated (sites not given)
notes: Endogenous protein from AKR-2B cell lysate, detected by Western blot with a phospho-Smad2 specific antibody

Assays:
[1] = target: B6; experiment: GST pull-down from AKR-2B lysate, Western blot
Description: Lysates from AKR-2B cells untreated (−) or stimulated (+) for 45 minutes with 5 ng/mL TGFβ were incubated with GST beads or the indicated fusion polypeptides immobilized on GST beads. Bound polypeptides were eluted and assessed by Western analysis for pSmad3 or pSmad2. Cell lysate reflects signal obtained from 10 μg total protein. (B) AKR-2B cells were transduced for 90 minutes with the indicated concentrations of the TAT-SNX9(SH3) fusion polypeptides. Following washing and 1 hour TGFβ (5 ng/mL) treatment, nuclear fractions were isolated, and Western blotted for pSmad2, pSmad3, or histone deacetylase 1 (HDAC) (Left). Quantitation of nuclear pSmads was performed with Image J software and represents the mean+/−sd of two experiments (Right). […] Immunofluorescence for Smad3 or the HA-tagged TAT-SNX9(SH3) fusion polypeptide was performed, and nuclei were stained with DAPI (Left panels). Quantitation of nuclear Smad3 from 30 cells in each of two experiments (Right).
To assess SNX9 binding to GST or His constructs, cells were incubated in the presence or absence of 5 ng/mL TGFβ for 45 minutes. Following RIPA buffer lysis, 500 μg of protein was precleared with GST Resin or TALON Metal Affinity Resin for 2 hours at 4° C. Precleared cell lysates were then treated with 5 μg purified GST- or His-fusion proteins and incubated overnight at 4° C. with gentle shaking. Following addition of GST or TALON Metal Affinity Resin and 2 hours of incubation, the pelleted (3,000×g; 10 minutes) resin was washed several times with PBS, and the remaining proteins were eluted using 1× Laemmli sample buffer. Western blotting was performed as described above.

[2] = target: T1, phosphorylated Smad3 (pSmad3) (UniProt Q8BUN5 2-425, phosphorylated (sites not given)); experiment: GST pull-down from AKR-2B lysate, Western blot
T1 construct: Endogenous protein from AKR-2B cell lysate, detected by Western blot with a phospho-Smad3 specific antibody; also called phosphorylated (p) Smad3

[3] = target: T1, phosphorylated Smad3 (pSmad3); experiment: His pull-down from AKR-2B lysate, Western blot
[4] = target: T2, GST full length (FL) SNX9 (UniProt Q9Y5X1 1-595); experiment: GST pull-down from AKR-2B lysate, Western blot
T2 construct: GST fusion used in pull-down; also called GST-FL SNX9; not shown: glutathione S-transferase (GST) tag

T1 sequence (Q8BUN5 2-425 limits assumed): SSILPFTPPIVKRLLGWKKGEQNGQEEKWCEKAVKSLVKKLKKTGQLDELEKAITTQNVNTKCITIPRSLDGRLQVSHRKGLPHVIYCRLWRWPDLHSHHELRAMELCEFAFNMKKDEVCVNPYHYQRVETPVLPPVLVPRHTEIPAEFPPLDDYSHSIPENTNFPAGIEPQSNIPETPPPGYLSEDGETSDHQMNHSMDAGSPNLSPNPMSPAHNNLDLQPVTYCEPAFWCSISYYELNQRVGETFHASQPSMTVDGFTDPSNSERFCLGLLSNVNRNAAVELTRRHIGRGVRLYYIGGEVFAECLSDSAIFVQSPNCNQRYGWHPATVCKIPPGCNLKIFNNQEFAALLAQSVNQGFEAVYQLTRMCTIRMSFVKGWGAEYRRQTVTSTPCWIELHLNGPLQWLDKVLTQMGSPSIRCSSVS

Binder | binding result [1] | other results
B1 | no binding | 
B2 | no binding | binding result [2]: no binding
B3 | no binding | 
B4 | no binding | 
B5 |  | binding result [3]: no binding
B6 |  | binding result [4]: no binding
